# T1: Mmi1 YTH domain (Schizosaccharomyces pombe, UniProt O74958 282-488)
# T1 sequence: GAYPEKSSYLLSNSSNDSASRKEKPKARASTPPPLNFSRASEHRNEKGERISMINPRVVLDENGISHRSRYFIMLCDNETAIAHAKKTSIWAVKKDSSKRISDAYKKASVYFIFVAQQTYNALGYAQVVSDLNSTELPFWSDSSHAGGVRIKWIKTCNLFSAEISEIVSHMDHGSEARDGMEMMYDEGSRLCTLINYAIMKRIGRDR
# Molecular target: T1, Mmi1 YTH domain
# Experiment: fluorescence polarization; 20 mM HEPES pH 7.5, 100 mM NaCl, 1 mM Mg(OAc)2, 0.1 mM TCEP, 10 nM labeled RNA, 10 min at room temperature; Hill-slope fit
# Conditions: protein: recombinant
row,Binder,Kd
1,CAGCUCCGCAUCCCUUUCCC (ssRNA) [20-mer unstructured RNA],13900 ± 1600 nM

# Same assay, conditions: protein: recombinant; label: 3' 6-FAM
row,Binder,Kd
1,CUCUUUAAACCUAAAAAGC (ssRNA) [rec8 UUAAAC],226 ± 15 nM
2,CUCUUGAAACCUAAAAAGC (ssRNA) [rec8 UGAAAC],216 ± 14 nM
3,CUCUUUACACCUAAAAAGC (ssRNA) [rec8 UUACAC],460 ± 25 nM
4,CUCUUUAACCCUAAAAAGC (ssRNA) [rec8 UUAACC],311 ± 13 nM
5,CUCUUUAAAGCUAAAAAGC (ssRNA) [rec8 UUAAAG],231 ± 7 nM
6,CUCUUUCAACCUAAAAAGC (ssRNA) [rec8 UUCAAC],433 ± 33 nM
7,CUCUUUCUCCCUACAAAGC (ssRNA) [rec8 UUCUCC],1370 ± 140 nM

# Molecular target: recombinant S. pombe Ccr4-Not complex (seven core subunits) (S. pombe) (UniProt O74856)
# Sequence (O74856 whole entry, looked up, tested part not stated, one chain of several): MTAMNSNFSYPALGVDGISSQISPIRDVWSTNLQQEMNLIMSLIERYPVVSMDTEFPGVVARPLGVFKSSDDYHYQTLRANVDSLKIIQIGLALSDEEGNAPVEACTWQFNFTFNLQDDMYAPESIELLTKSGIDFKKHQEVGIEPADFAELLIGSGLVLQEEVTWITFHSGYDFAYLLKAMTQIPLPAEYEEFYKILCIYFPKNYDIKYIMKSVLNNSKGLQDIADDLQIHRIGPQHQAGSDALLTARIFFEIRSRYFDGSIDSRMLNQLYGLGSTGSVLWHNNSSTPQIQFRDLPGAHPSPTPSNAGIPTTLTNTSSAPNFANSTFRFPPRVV
# Experiment: not given
# Conditions: not given
row,"rate of deadenylation of the rec8^UUAAAC-A30 target RNA by Ccr4-Not with bound Mmi1, against Ccr4-Not without Mmi1",Binder
1,5 fold,"Mmi1 (recombinant, S. pombe) (natural protein) MSNTNFSTSRSSKSIPELPNLEALRSLWPPPSLNESGDTRSVWTTHTGEPVASSVLSTSGSNNFSSPLKRPAPESHDAPIGRRLMVDDPRLIKHGKYDFSRHCTDYGHSYEWPYFRSLRRESMLYHTSGSYPESQPPYSSYSTDAPHYYHAGSESSAYYDSRSRLHGIQPPPKRRTLSPPPRRLADPVVVGSSRYVEEEVYRRPPYTLASEVPSSASAYQAGYSSYPVRSSPQLSHEDTRHGIASSGSTRYPFVPANTRASHSPSLLEPYAHSLPSSVAPVGAYPEKSSYLLSNSSNDSASRKEKPKARASTPPPLNFSRASEHRNEKGERISMINPRVVLDENGISHRSRYFIMLCDNETAIAHAKKTSIWAVKKDSSKRISDAYKKASVYFIFVAQQTYNALGYAQVVSDLNSTELPFWSDSSHAGGVRIKWIKTCNLFSAEISEIVSHMDHGSEARDGMEMMYDEGSRLCTLINYAIMKRIGRDR"

# Reference: article PMC5120349, “Reconstitution of Targeted Deadenylation by the Ccr4-Not Complex and the YTH Domain Protein Mmi1”
